Target: T1, IFNAR on 38C13 cells (murine, UniProt P33896 27-590; O35664 22-513)
T1 sequence (looked up) 1: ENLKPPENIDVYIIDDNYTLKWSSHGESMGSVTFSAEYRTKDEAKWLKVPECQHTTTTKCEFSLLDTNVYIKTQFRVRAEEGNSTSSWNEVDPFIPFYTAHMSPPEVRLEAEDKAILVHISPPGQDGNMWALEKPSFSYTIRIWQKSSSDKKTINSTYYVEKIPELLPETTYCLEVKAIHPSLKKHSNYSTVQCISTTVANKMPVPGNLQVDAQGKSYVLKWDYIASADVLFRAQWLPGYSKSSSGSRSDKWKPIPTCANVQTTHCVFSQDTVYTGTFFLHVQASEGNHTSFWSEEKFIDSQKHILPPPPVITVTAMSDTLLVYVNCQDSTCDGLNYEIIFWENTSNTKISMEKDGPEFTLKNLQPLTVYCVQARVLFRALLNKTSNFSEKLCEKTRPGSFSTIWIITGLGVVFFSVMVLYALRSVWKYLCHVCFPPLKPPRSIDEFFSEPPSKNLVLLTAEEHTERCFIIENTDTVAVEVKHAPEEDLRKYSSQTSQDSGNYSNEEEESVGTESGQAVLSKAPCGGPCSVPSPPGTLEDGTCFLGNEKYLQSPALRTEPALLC
T1 sequence (looked up) 2: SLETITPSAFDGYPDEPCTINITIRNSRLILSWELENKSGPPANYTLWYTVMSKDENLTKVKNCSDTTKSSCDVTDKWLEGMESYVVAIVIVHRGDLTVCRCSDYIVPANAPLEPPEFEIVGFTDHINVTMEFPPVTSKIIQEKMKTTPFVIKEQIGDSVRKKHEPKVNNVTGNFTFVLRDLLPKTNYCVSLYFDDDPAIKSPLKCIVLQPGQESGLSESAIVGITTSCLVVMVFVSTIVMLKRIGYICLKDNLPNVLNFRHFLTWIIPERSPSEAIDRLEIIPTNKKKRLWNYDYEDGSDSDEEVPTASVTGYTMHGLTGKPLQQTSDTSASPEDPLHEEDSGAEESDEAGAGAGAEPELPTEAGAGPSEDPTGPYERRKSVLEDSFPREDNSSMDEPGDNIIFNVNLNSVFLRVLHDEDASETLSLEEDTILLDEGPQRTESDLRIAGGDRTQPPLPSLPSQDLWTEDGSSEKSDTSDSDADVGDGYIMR
Test: cell-based or functional assay

B1: anti-CD20/IgG3-mu-IFN-α (other)
heavy: QVQLQQPGAELVKPGASVKMSCKASGYTFTSYNMHWVKQTPGRGLEWIGAIYPGNGDTSYNQKFKGKATLTADKSSSTAYMQLSSLTSEDSAVYYCARSTYYGGDWYFNVWGAGTTVTVSAASTKGPSVFPLAPCSRSTSGGTAALGCLVKDYFPEPVTVSWNSGALTSGVHTFPAVLQSSGLYSLSSVVTVPSSSLGTQTYTCNVNHKPSNTKVDKRVELKTPLGDTTHTCPRCPEPKSCDTPPPCPRCPEPKSCDTPPPCPRCPEPKSCDTPPPCPRCPAPELLGGPSVFLFPPKPKDTLMISRTPEVTCVVVDVSHEDPEVQFKWYVDGVEVHNAKTKLREEQYNSTFRVVSVLTVLHQDWLNGKEYKCKVSNKALPAPIEKTISKAKGQPREPQVYTLPPSREEMTKNQVSLTCLVKGFYPSDIAVEWESNGQPENNYNTTPPMLDSDGSFFLYSKLTVDKSRWQQGNIFSCSVMHEALHNHYTQKSLSLSPGKSGGGGSCDLPQTHNLRNKRALTLLVQMRRLSPLSCLKDRKDFGFPQEKVDAQQIKKAQAIPVLSELTQQILNIFTSKDSSAAWNATLLDSFCNDLHQQLNDLQGCLMQQVGVQEFPLTQEDALLAVRKYFHRITVYLREKKHSPCAWEVVRAEVWRALSSSANVLGRLREEK
light: QIVLSQSPAILSASPGEKVTMTCRASSSVSYIHWFQQKPGSSPKPWIYATSNLASGVPVRFSGSGSGTSYSLTISRVEAEDAATYYCQQWTSNPPTFGGGTKLEIK
  IC50 (pM) 38C13-CD20, cell viability, MTS assay: 76.4 pM
  IC50 (pM) 38C13-CD20-IFNR Knock Down, cell viability, MTS assay: 848 pM

From patent US20110104112A1 (University of California, published 2011)
